Reference: US20220289837A1 (VIB VZW, published 2022)

B1: Nanobody T27 (VHH, not shown: small tags and cut ends)
VHH: QVQLQESGGGLEQPGGSLRLSCATSGVIFGINAMGWYRQAPGKQRELVATFTSGGSTNYADFVEGRFTISRDNAKNTVYLQMNGLRPEDTAVYYCHATVVVSRYGLTYDYWGQGTQVTVSS
notes: Llama nanobody; also called NbT27; T27 Nb
B2: Nanobody D12 (VHH, not shown: small tags and cut ends)
VHH: QVQLQESGGGLVQAGSSLRLACAATGSIRSINNMGWYRQAPGKQRGMVAIITRVGNTDYADSVKGRFTISRDNAKNTVYLQMNSLKPEDTATYYCHAEITEQSRPFYLTDDYWGQGTQVTVSS
notes: Llama nanobody raised against 2PT-NBD1; produced in E. coli periplasm; also called Nb D12; D12 Nb
B3: Nanobody G3a (VHH, not shown: small tags and cut ends)
VHH: QVQLQESGGGLVQAGGSLRLSCTASGRAFSWYVMGWFRQAPGKEREFVATVSGNGSRRDYADSVKGRFTISRDNAKNTVYLQMNSLKPEDTAVYYCAASSTYYYTDPEKYDYWGQGTQVTVSS
notes: Llama nanobody, non-stabilizing; also called Nb G3a; G3a Nb
B4: Nanobody T4 (VHH, not shown: small tags and cut ends)
VHH: QVQLQESGGGLVQAGGSLRLSCAASGSTFAIIAMGWYRQAPGKQRELVAVISTGDTRYADSVKGRFTISRDNAKNTVYLQMDSLRPEDTAVYYCNAAVQVRDYRNYWGQGTQVTVSS

Experiments:
F508del-2PT-NBD1 = target: T1, F508del-2PT-NBD1 (human, UniProt P13569 388-646, biotinylated for the ELISA (sites not given)); experiment: ELISA, biotinylated F508del-2PT-NBD1 on avidin-coated plate, nanobody titrated, anti-His detection
T1 construct: also called F508del-2PT-NBD1 mutant
Method: (§1) (a) Nanobody binding to 2PT-NBD1 measured by ELISA. Biotinylated 2PT-NBD1 was immobilized on avidin-coated plates and incubated with increasing concentration of each nanobody. Binding of nanobody was followed by immunodetection of the His-tag (see Methods). Representative curve of 3 independent experiments is shown. Error bars represent the standard deviation (SD) of duplicates. Data were normalized to maximum signal for each nanobody separately. (b) Nanobody binding to F508del-2PT-NBD1 measured by ELISA as described in panel a. (c) Nanobody T4 binding to 2PT-NBD1 and F508del-2PT-NBD1. Data were normalized to maximum signal of T4 binding to 2PT-NBD1. (d) Nanobody T8 binding to 2PT-NBD1 and F508del-2PT-NBD1. Data were normalized to maximum signal of T8 binding to 2PT-NBD1.
(§2) For dose-response assays, Nunc MaxiSorp 96-well plates (ThermoScientific), were coated with 5 μg/ml NeutrAvidin Biotin-Binding protein (ThermoScientific) overnight at 4° C. and blocked 2 h at room temperature (RT) with 2% milk in phosphate-buffered saline (PBS). Each new reagent addition was preceded by three washes with 200 μl of NBD1 buffer (20 mM HEPES pH 7.5, 150 mM NaCl, and 10% (w/v) glycerol, 10% (w/v) ethylene glycol, 2 mM ATP, 3 mM MgCl₂). Then, biotinylated purified NBD1 proteins at 5 μg/ml were immobilized 30 min at RT followed by 1 h RT incubation with 100 μl various concentrations (0-20 μg/ml) of purified nanobodies. Signal detection was followed using His-tag specific antibody (Invitrogen, catalogue number: MA1-135, 1:3000 dilution) to detect the nanobodies and secondary antibody anti-mouse coupled to horse radish peroxidase (HRP) (Millipore, catalogue number: AP308P, 1:5000 dilution). 50 μl of 1-Step UltraTMB-ELISA (ThermoScientific) was used as a substrate for the peroxidase and intensity of the reaction was proportional to absorbance measured at 450 nm with SynergyMx (BioTek) after addition of 50 μl H₂SO₄ at 1M.

[1] = target: T2, 2PT-NBD1 (human CFTR nucleotide-binding domain 1, residues 387-646, with S492P, A534P, I539T) (human, UniProt P13569 388-646, biotinylated for the ELISA (sites not given)); experiment: isothermal titration calorimetry, nanobody titrated into 2PT-NBD1 at 20 °C, one-site model
T2 construct: N-terminal His6-SUMO tag removed with Ulp1; In the T2a-T4 and T27 crystals the domain was cut by papain or subtilisin
Method: (§3) Isothermal titration calorimetry (ITC) was used to characterize the thermodynamic parameters of the binding (FIG. 1e and FIG. 9). […] These KD values are similar to those measured for other in vivo matured camelid heavy-chain antibodies interacting with their ligands^{[20]}. The thermodynamic parameters of the interaction of nanobodies with 2PT-NBD1 were determined based on these ITC measurements (FIG. 1e and FIG. 9).
(§4) Interactions between nanobodies and 2PT-NBD1 was carried out on NanoITC system (TA Instruments) in 0.165 ml cells at 20° C., 300 rpm syringe stirring. Proteins were extensively dialyzed in 20 mM Hepes buffer pH 7.5, 150 mM NaCl, 10% (w/v) glycerol, 10% (w/v) ethylene glycol, 2 mM ATP and 3 mM MgCl₂ for 16 h at 4° C. Heat of dilution from control experiments of each nanobody titrated into buffer was subtracted from the titration into 2PT-NBD1. Data were integrated analyzed with Origin 7.0 software (Origin Lab Corp.).

[2] = target: T2, 2PT-NBD1 (human CFTR nucleotide-binding …); experiment: ELISA, biotinylated 2PT-NBD1 on avidin-coated plate, T27 titrated
Text: (§5) The location of these nanobodies completely overlaps (FIG. 11a) with that of the C-terminal regulatory extension (RE) observed in previously published structures of NBD1^{[25,26].} The RE segment, comprising residues 654-673 was removed from the 2PT-NBD1 construct used for immunization and characterization. While the functional role of the RE is still unclear, it has been described to be a very mobile domain^{[27]}. […] This is consistent with RE being a dynamic region of CFTR.
as §2, with “Signal detection was followed using His-tag specific antibody (Invitrogen, catalogue number: MA1-135, 1:3000 dilution) to detect the nanobodies and secondary antibody anti-mouse coupled to horse radish peroxidase (HRP) (Millipore, catalogue number: AP308P, 1:5000 dilution).” left out

[3] = target: T2, 2PT-NBD1 (human CFTR nucleotide-binding …); experiment: ELISA, biotinylated 2PT-NBD1 on avidin-coated plate, nanobody titrated, anti-His detection; column head 'pEC50 (M)'
Method: as §1, §2

[4] = target: T2, 2PT-NBD1 (human CFTR nucleotide-binding …); experiment: cell-based or functional assay
[5] = target: Purified human wt-CFTR (His10-SUMO*-CFTRFLAG-EGFP), PKA phosphorylated (human, UniProt P13569 1-1480, PKA phosphorylated (sites not given)); experiment: cell-based or functional assay
[6] = target: T3, 2PT-NBD1-RE (2PT-NBD1 with residues 387-678, containing the regulatory extension) (human, UniProt P13569 387-678, biotinylated for the ELISA (sites not given)); experiment: ELISA, biotinylated 2PT-NBD1-RE on avidin-coated plate, T27 titrated
Text: as §5
as §2, with “Signal detection was followed using His-tag specific antibody (Invitrogen, catalogue number: MA1-135, 1:3000 dilution) to detect the nanobodies and secondary antibody anti-mouse coupled to horse radish peroxidase (HRP) (Millipore, catalogue number: AP308P, 1:5000 dilution).” left out

[7] = target: T2, 2PT-NBD1 (human CFTR nucleotide-binding …); experiment: ITC, nanobody titrated into 2PT-NBD1 at 20 °C, one-site model
Method: as §3, §4

[8] = target: T2, 2PT-NBD1 (human CFTR nucleotide-binding …); experiment: ELISA, biotinylated 2PT-NBD1 on avidin-coated plate, D12 titrated
Text: as §5
as §2, with “Signal detection was followed using His-tag specific antibody (Invitrogen, catalogue number: MA1-135, 1:3000 dilution) to detect the nanobodies and secondary antibody anti-mouse coupled to horse radish peroxidase (HRP) (Millipore, catalogue number: AP308P, 1:5000 dilution).” left out

[9] = target: T3, 2PT-NBD1-RE (2PT-NBD1 with residues …); experiment: ELISA, biotinylated 2PT-NBD1-RE on avidin-coated plate, D12 titrated
Text: as §5
as §2, with “Signal detection was followed using His-tag specific antibody (Invitrogen, catalogue number: MA1-135, 1:3000 dilution) to detect the nanobodies and secondary antibody anti-mouse coupled to horse radish peroxidase (HRP) (Millipore, catalogue number: AP308P, 1:5000 dilution).” left out

[10] = target: T4, 2PT-F508del-CFTR expressed in BHK-21 cells (human, UniProt P13569 1-1480, I539T; S492P; A534P; F508del); experiment: flow cytometry on permeabilised BHK-21 cells expressing 2PT-F508del-CFTR, anti-tag antibody and Alexa Fluor 488 secondary
T4 construct: Full-length F508del CFTR stabilized by the three point mutations; permeabilized cells in flow cytometry
Text: Graph depicts one representative of at least three independent experiments. (FIG. 4F) Average median fluorescence (fold over negative control) for each of the three representative nanobodies as illustrated in (FIG. 4D) and (FIG. 4E). Quantification of at least 3 independent experiments (±SEM). (g) Immunoblot of CFTR from solubilized BHK-21 cells pulled-down with His-tagged nanobodies, including a non-CFTR nanobody as a control. Eluted nanobodies-CFTR complexes were separated by SDS-PAGE and presence of CFTR was detected with mAb 596 antibody after immunoblotting. Arrows indicate the mature (band C) and immature (band B) forms of CFTR. Representative of at least 3 independent experiments. (FIG. 4H) Flow cytometry analysis of nanobodies T2a, T8 and G3a on BHK-21 cells expressing 2PT-F508del showing increased labelling for T2a and G3a, but not T8. (FIG. 4I) Quantification of data illustrated in […]. Average of 3 independent experiments (±SEM).
Parental BHK-21 cells (ATCC; CCL-10) and cells stably overexpressing human wt-CFTR^{[43,44,47]} or 2PT-F508del-CFTR, as described above, were permeabilized with 0.01% n-Dodecyl-β-D-Maltopyranoside β-DDM—Inalco) at least for 2 h on ice. In the meantime, cells were incubated with 50 μg/ml nanobodies and DRAQ7 (0.3 μM—Biostatus) to monitor the permeabilization state. Nanobody binding was detected by using His-tag specific antibody (Invitrogen, catalogue number MA1-135, 1 μg/ml) or Myc-tag specific antibody (Invitrogen, catalogue number 13-2500, 2 μg/ml) and then anti-mouse-Alexa Fluor 488 (Invitrogen, catalogue number A11001, 1.3 μg/ml) at least for 30 min on ice. Cells were washed one time between each step by centrifugation (200×g for 5 min at 4° C.). All incubations (100 μl) and washes (1.5 ml) were performed in PBS with 6% fetal bovine serum (FBS) and 0.01%13-DDM on ice. Cells fluorescence was measured with Gallios Flow Cytometer (Beckman Coulter). Data were analyzed with Kaluza software.

[11] = target: T5, Stabilized human CFTR (stab-CFTR: 2PT/ΔRI/R1048A_1172X) (human, UniProt P13569 1-1171, limits assumed); experiment: cell-based or functional assay
[12] = target: T5, Stabilized human CFTR (stab-CFTR: …); experiment: cell-based or functional assay; remark: listed apart in the source

T1 sequence (P13569 other isoform, or with tags, fused parts or gaps limits assumed, stated change not applied): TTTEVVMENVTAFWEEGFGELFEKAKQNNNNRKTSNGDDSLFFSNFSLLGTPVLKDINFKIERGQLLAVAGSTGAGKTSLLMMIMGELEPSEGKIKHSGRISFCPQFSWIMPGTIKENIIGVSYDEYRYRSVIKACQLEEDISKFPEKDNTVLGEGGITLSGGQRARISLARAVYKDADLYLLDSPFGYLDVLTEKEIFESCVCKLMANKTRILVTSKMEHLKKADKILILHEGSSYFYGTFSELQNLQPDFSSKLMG
T2 sequence (P13569 388-646 V470M/S492P/A534P/I539T limits assumed): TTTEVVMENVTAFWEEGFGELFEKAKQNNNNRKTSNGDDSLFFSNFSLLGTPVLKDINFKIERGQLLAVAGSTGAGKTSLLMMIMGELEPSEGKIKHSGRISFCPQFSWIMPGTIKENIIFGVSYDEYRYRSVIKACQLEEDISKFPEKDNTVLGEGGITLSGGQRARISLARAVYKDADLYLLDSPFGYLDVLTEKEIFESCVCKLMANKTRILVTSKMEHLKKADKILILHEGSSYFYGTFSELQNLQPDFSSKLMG
T3 sequence (P13569 other isoform, or with tags, fused parts or gaps limits assumed): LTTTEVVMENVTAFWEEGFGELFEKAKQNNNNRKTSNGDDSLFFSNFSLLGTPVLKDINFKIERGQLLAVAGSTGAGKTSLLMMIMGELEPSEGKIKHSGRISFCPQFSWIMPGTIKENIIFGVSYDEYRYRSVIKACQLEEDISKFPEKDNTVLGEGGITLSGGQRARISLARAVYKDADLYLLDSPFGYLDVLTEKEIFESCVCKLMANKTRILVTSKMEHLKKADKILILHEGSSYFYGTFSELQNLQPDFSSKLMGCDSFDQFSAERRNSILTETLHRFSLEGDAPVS
T5 sequence (P13569 other isoform, or with tags, fused parts or gaps R1048A R1048A limits assumed): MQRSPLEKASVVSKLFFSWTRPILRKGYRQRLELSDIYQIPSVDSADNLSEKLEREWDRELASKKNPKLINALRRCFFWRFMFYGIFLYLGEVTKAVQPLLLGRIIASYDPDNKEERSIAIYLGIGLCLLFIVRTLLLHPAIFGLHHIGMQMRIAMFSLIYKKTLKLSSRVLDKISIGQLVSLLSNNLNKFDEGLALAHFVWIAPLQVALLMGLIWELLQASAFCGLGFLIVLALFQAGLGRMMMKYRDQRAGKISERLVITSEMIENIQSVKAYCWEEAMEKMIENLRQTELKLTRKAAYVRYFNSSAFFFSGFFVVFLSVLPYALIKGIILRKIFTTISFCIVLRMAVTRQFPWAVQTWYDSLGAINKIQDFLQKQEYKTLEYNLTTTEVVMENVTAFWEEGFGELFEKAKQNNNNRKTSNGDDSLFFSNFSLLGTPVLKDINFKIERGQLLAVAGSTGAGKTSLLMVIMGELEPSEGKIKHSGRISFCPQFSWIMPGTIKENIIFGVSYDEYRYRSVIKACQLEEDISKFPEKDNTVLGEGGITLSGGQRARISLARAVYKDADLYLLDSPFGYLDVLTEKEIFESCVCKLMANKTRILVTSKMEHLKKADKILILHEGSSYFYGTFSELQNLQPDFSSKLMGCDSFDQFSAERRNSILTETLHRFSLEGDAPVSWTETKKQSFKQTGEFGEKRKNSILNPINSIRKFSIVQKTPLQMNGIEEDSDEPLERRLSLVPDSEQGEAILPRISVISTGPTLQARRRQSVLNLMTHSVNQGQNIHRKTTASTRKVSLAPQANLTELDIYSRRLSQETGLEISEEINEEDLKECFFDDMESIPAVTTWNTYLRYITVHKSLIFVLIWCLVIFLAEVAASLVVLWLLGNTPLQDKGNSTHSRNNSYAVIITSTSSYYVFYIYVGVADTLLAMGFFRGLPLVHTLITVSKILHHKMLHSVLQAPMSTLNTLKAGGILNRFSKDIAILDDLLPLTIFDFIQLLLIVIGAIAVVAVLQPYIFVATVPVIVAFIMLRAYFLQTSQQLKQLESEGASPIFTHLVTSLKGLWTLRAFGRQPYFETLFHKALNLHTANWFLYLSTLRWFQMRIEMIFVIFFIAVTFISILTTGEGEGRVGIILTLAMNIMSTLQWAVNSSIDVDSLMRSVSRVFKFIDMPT
Purified human wt-CFTR (His10-SUMO*-CFTRFLAG-EGFP), PKA phosphorylated, sequence (P13569 whole entry, the tested form may be a part): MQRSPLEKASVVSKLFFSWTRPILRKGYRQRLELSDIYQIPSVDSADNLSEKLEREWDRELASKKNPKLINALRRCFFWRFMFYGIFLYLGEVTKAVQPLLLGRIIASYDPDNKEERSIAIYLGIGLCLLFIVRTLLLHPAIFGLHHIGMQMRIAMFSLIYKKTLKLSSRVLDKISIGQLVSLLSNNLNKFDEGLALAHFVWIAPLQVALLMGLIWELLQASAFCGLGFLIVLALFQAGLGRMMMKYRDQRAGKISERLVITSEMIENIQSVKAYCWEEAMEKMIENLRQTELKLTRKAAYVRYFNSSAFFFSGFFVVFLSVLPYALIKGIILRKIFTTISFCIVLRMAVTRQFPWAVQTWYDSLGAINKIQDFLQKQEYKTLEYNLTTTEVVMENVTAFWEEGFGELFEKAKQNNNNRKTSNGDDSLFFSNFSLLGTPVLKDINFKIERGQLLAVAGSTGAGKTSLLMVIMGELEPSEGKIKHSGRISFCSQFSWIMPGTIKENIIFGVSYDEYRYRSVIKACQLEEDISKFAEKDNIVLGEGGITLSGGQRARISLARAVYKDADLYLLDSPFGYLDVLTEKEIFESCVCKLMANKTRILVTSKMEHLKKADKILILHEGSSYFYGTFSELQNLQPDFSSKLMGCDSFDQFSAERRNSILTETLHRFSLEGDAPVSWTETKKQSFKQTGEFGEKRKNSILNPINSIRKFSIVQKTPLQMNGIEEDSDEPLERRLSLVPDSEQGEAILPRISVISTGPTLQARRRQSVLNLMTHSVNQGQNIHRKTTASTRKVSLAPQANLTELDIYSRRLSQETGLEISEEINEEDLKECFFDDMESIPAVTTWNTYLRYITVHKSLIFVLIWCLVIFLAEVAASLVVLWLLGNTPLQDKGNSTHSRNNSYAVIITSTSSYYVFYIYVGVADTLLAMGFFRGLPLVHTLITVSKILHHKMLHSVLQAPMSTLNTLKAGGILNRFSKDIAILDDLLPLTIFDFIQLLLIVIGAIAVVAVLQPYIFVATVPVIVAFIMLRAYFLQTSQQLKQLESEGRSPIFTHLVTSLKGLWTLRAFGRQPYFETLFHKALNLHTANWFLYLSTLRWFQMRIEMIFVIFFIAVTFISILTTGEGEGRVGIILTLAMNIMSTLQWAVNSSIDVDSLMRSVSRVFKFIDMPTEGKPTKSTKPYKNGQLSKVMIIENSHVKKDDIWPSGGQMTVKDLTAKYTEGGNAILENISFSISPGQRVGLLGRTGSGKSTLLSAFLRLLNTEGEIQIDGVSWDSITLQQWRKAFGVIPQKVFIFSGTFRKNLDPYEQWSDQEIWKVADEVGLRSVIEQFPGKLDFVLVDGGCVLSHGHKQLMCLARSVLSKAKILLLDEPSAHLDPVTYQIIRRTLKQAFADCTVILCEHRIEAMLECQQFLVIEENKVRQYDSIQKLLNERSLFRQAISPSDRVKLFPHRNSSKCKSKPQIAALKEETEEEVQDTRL
T4 sequence (P13569 other isoform, or with tags, fused parts or gaps I539T/S492P/A534P/F508del): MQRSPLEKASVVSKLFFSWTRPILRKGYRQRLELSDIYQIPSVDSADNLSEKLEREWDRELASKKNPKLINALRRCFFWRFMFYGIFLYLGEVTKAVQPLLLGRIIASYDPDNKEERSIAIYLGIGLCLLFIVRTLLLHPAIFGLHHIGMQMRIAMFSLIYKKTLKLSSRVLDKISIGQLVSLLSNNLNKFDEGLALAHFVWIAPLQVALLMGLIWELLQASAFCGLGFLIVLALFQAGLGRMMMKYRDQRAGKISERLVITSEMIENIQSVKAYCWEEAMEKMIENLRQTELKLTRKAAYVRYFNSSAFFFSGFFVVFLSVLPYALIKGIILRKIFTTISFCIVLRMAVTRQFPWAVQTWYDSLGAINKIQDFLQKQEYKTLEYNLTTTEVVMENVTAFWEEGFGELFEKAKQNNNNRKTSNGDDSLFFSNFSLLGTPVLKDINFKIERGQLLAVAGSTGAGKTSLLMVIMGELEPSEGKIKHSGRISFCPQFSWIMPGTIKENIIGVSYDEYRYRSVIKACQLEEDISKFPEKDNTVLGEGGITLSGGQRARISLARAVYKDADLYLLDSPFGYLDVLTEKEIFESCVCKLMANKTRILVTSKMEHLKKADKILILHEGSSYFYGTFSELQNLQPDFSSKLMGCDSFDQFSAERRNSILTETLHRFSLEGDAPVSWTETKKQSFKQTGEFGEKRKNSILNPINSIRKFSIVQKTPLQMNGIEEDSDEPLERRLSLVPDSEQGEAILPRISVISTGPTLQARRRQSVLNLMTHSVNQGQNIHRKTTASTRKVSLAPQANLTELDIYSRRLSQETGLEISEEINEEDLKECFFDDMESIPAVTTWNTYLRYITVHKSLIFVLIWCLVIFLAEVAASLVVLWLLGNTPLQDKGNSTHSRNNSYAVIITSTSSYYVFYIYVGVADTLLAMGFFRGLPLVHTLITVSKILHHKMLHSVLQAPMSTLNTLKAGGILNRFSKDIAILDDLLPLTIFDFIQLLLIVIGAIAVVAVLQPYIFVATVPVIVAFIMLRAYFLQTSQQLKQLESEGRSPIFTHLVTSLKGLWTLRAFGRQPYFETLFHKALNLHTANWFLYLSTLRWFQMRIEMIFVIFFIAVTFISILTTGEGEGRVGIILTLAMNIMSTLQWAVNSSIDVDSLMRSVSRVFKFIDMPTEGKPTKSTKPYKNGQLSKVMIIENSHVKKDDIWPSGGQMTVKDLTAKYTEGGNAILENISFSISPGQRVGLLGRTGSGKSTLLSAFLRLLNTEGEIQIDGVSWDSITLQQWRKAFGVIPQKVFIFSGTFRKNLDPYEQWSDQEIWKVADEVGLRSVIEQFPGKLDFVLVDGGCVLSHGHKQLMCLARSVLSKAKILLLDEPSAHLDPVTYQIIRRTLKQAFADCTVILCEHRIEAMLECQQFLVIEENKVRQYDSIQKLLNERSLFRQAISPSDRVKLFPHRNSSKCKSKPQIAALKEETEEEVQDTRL

| Binder | EC50 (read off the curve) (F508del-2PT-NBD1) | Kd [1] | EC50 (read off the curve) [2] | pEC50 [3] | increase of Tm (thermal shift assay, DSF) [4] | ATPase activity (% of PKA-phosphorylated CFTR) [5] | EC50 (read off the curve) [6] | ΔG [7] | ΔH [7] | EC50 (read off the curve) [8] | EC50 (read off the curve) [9] | binding result [10] | Tm of stab-CFTR in complex with the nanobody (nanoDSF, first derivative of 350 nm fluorescence); 'stab-CFTR (51.4°C)', 'T4 (73.8°C)' alone [11] | thermostabilization (nanoDSF, Tm) [12] |
| --- | --- | --- | --- | --- | --- | --- | --- | --- | --- | --- | --- | --- | --- | --- |
| B1 | ~2 nM | 25 nM | ~3 nM | 8.7 | 11.9 °C | 30% | ~3 nM | -10.2 kcal/mol | -12.1 kcal/mol | – | – | – | – | – |
| B2 | ~10 nM | – | – | 7.6 | 13.8 °C | 50% | – | – | – | ~50 nM | ~80 nM | – | – | – |
| B3 | ~2000 nM | 1100 nM | – | 5.8 | – | – | – | -7.98 kcal/mol | -11.4 kcal/mol | – | – | binds | – | – |
| B4 | – | – | – | – | – | – | – | – | – | – | – | – | 59.4 °C | 8 °C |
